Assay results from paper PMC10636324 (Proceedings of the National Academy of Sciences of the …, 2023).

T1: FAM91A1^N (N terminus of FAM91A1, residues 1-328), wild type (UniProt Q658Y4 1-328)
T1 sequence (looked up): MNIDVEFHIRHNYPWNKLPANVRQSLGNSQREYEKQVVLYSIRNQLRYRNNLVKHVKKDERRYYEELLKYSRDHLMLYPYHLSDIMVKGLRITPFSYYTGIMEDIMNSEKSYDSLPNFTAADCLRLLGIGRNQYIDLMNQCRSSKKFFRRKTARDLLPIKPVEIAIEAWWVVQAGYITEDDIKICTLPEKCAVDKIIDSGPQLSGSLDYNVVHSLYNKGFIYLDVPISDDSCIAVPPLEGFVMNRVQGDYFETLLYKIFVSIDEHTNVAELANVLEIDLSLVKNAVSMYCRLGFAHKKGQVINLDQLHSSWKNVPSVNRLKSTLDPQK


Legend:
[1] = target: T1, FAM91A1^N (N terminus of FAM91A1, …); test: pull-down
[2] = target: T1, FAM91A1^N (N terminus of FAM91A1, …); test: ITC

Row | Binder | binding result [1] | further results
1 | TPVDRHVSSSDRVGKPYRGVKPVLSIGDEEEYDTDEIDSSSMSDD (domain or fragment, human, UniProt Q9NUY8-2 514-558, looked up) [GST-TBC1D23^514-558 F537L] | binds | –
2 | TPVDRHVSSSDRVGKPYRGVNPVFSIGDEEEYDTDEIDSSSMSDD (domain or fragment, human, UniProt Q9NUY8-2 514-558, looked up) [GST-TBC1D23^514-558 K534N] | binds | –
3 | TPVDRHVSSSDRVGKAYRGVKPVFSIGDEEEYDTDEIDSSSMSDD (domain or fragment, human, UniProt Q9NUY8-2 514-558, looked up) [GST-TBC1D23^514-558 P529A] | binds | –
4 | TPVDQHVSSSDRVGKPYRGVKPVFSIGDEEEYDTDEIDSSSMSDD (domain or fragment, human, UniProt Q9NUY8-2 514-558, looked up) [GST-TBC1D23^514-558 R518Q] | binds | –
5 | TPVDRHVSSSDRVGKPYCGVKPVFSIGDEEEYDTDEIDSSSMSDD (domain or fragment, human, UniProt Q9NUY8-2 514-558, looked up) [GST-TBC1D23^514-558 R531C] | binds | –
6 | TPVDRHVSSSDRVGKPYHGVKPVFSIGDEEEYDTDEIDSSSMSDD (domain or fragment, human, UniProt Q9NUY8-2 514-558, looked up) [GST-TBC1D23^514-558 R531H] | binds | –
7 | APVDRHVSSSDRVGKPYRGVKPVFSIGDEEEYDTDEIDSSSMSDD (domain or fragment, human, UniProt Q9NUY8-2 514-558, looked up) [GST-TBC1D23^514-558 T514A] | binds | –
8 | TPVDRHVSSSDRVGKPYRGIKPVFSIGDEEEYDTDEIDSSSMSDD (domain or fragment, human, UniProt Q9NUY8-2 514-558, looked up) [GST-TBC1D23^514-558 V533I] | binds | –
9 | TPVDRHVSSSDRVGKPYRGVKPVFSIGDEEEYDTDEIDSSSMSDD (domain or fragment, human, UniProt Q9NUY8-2 514-558, looked up) [GST-TBC1D23^514-558 wild type] | binds | –
10 | TPVDRHVSSSDRVGKPYRGVKPVFS (peptide, UniProt Q9NUY8-2 514-538, looked up) [TBC1D23^514-538 wild type] | – | Kd [2]: 1150 ± 160 nM
11 | TPVDRHVSSSDRVGKPYRGVKPVLS (peptide, UniProt Q9NUY8-2 514-538, looked up) [TBC1D23^514-538 F537L] | – | affinity as percent of that of WT [2]: ~16.4%
12 | TPVDRHVSSSDRVGKPYCGVKPVFS (peptide, UniProt Q9NUY8-2 514-538, looked up) [TBC1D23^514-538 R531C] | – | affinity as percent of that of WT [2]: ~6.6%
13 | TPVDRHVSSSDRVGKPYHGVKPVFS (peptide, UniProt Q9NUY8-2 514-538, looked up) [TBC1D23^514-538 R531H] | – | affinity as percent of that of WT [2]: ~7.9%
